Test results published in PMC3005596 (Journal of molecular biology, 2010).
Where two headings read alike, the source gives them in different places.

T1: TRBP (human, UniProt Q15633 1-366)
T1 sequence: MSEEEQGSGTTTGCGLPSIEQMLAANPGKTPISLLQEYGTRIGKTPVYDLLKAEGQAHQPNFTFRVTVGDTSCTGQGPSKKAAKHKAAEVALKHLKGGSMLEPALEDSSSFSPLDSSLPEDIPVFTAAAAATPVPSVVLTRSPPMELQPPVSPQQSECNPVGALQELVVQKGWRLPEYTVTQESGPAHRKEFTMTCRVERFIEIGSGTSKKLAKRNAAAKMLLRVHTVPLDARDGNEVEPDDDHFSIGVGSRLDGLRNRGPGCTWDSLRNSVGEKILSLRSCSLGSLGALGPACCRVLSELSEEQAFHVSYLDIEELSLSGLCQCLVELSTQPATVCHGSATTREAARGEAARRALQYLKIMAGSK

T2: TRBPpm (phospho-mimic) (human, UniProt Q15633 1-366, S142D;S152D;S283D;S286D)
T2 sequence: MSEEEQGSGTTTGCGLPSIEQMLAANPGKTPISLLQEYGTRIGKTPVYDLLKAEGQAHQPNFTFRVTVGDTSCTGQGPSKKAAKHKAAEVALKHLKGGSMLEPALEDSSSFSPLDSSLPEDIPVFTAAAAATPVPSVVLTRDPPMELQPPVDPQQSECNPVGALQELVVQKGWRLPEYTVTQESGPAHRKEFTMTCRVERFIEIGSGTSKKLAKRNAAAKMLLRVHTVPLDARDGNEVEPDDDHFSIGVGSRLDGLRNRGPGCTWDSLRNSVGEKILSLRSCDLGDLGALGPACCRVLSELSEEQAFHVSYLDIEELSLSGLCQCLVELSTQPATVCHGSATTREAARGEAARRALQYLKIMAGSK


How the values were obtained:
Dicer = Dicer (human, UniProt Q9UPY3 1-1922); test: filter binding
Dicer, sequence (Q9UPY3 whole entry): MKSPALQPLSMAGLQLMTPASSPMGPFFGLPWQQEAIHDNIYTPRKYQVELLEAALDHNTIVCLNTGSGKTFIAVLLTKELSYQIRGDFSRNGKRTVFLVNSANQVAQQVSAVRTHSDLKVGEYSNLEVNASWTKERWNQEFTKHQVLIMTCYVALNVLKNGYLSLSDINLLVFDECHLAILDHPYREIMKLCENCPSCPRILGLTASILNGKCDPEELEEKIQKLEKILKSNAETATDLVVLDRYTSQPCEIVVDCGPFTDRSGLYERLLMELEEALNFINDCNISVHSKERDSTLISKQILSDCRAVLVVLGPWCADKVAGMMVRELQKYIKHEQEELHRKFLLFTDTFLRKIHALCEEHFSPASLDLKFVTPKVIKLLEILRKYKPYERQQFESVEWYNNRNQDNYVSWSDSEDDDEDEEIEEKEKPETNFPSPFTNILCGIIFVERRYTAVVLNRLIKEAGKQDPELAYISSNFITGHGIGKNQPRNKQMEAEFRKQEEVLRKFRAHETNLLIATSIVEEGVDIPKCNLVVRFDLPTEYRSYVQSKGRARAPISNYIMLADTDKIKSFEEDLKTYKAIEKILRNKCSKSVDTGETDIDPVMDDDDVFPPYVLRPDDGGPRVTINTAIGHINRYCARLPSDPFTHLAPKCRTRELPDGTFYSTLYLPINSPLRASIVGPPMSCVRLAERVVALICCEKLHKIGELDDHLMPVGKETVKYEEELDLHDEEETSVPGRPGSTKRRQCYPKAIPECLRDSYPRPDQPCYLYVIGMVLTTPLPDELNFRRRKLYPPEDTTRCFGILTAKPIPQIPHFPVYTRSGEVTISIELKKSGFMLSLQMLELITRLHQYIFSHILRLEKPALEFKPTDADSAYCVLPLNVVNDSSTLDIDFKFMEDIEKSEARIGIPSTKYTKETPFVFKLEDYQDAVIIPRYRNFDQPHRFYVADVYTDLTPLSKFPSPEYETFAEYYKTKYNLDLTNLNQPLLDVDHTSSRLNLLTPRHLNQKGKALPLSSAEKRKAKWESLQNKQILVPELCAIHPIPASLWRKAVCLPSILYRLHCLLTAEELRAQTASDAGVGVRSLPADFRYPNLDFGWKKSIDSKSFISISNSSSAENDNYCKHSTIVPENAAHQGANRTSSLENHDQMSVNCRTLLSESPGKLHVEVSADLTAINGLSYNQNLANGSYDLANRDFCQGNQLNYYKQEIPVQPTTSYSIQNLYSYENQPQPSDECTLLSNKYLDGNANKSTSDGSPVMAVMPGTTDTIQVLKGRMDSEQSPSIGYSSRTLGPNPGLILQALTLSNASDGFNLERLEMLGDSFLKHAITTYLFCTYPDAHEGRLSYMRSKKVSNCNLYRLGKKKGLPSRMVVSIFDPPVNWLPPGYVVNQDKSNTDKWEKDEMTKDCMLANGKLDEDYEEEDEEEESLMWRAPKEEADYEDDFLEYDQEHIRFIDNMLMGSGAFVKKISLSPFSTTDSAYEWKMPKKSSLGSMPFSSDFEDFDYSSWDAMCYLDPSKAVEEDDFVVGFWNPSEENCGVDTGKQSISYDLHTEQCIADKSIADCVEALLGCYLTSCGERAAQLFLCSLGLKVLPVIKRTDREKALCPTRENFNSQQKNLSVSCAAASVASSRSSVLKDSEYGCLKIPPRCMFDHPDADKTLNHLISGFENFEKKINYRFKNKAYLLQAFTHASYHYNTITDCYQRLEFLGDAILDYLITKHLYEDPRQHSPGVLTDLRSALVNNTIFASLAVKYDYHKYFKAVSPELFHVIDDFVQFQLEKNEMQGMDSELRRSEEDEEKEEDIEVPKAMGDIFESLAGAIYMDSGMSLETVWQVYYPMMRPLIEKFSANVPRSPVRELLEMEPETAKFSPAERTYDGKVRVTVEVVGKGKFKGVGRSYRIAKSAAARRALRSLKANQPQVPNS

Dicer;TRBPRBD3 = Dicer;TRBPRBD3 (human;human, UniProt Q9UPY3;Q15633 1-1922;293-366, |); test: filter binding
Dicer;TRBPRBD3, sequence (Q9UPY3 whole entry, chain 1 of 2, one chain of several): as the sequence (Q9UPY3 whole entry) above

TRBP [1] = target: T1, TRBP; test: filter binding
TRBPpm (phospho-mimic) [2] = target: T2, TRBPpm (phospho-mimic); test: filter binding
Dicer;TRBP = Dicer;TRBP (human;human, UniProt Q9UPY3;Q15633 1-1922;1-366, |); test: filter binding
Dicer;TRBP, sequence (Q9UPY3 whole entry, one chain of several): as the sequence (Q9UPY3 whole entry) above

human Dicer = human Dicer (human, UniProt Q9UPY3 1-1922); test: SEC
human Dicer, sequence (Q9UPY3 whole entry): as above

TRBP [3] = target: T1, TRBP; test: filter binding; remark: listed apart in the source
TRBPpm (phospho-mimic) [4] = target: T2, TRBPpm (phospho-mimic); test: filter binding; remark: listed apart in the source
[5] = target: Dicer;TRBPpm (phospho-mimic) (human;human, UniProt Q9UPY3;Q15633 1-1922;1-366, |S142D;S152D;S283D;S286D); test: filter binding
Dicer;TRBPpm (phospho-mimic), sequence (Q9UPY3 whole entry, chain 1 of 2, one chain of several): as the sequence (Q9UPY3 whole entry) above

binding result (human Dicer) | Binder | Kd (Dicer) [nM] | Kd (Dicer;TRBPRBD3) [nM] | Kd (TRBP [1]) [nM] | Kd (TRBPpm (phospho-mimic) [2]) [nM] | Kd (Dicer;TRBP) [nM] | Kd (TRBP [3]) [nM] | Kd (TRBPpm (phospho-mimic) [4]) [nM] | Kd [5] [nM]
– | 35-bp duplex (pre-siRNA) (dsRNA) RNA 1: UGAGGUAGUAGGUUGUAUAGUUUGAAAGUUCACGAUU RNA 2: UCGUGAACUUUCAAACUAUACAACCUACUACCUCAAA | 3.4 ± 0.5 | 3 ± 0.4 | < 0.09 | < 0.1 | < 0.051 | – | – | –
binds | HIV trans-activating response (TAR) RNA binding protein (TRBP) (natural protein, human, UniProt Q15633 1-366, looked up) MSEEEQGSGTTTGCGLPSIEQMLAANPGKTPISLLQEYGTRIGKTPVYDLLKAEGQAHQPNFTFRVTVGDTSCTGQGPSKKAAKHKAAEVALKHLKGGSMLEPALEDSSSFSPLDSSLPEDIPVFTAAAAATPVPSVVLTRSPPMELQPPVSPQQSECNPVGALQELVVQKGWRLPEYTVTQESGPAHRKEFTMTCRVERFIEIGSGTSKKLAKRNAAAKMLLRVHTVPLDARDGNEVEPDDDHFSIGVGSRLDGLRNRGPGCTWDSLRNSVGEKILSLRSCSLGSLGALGPACCRVLSELSEEQAFHVSYLDIEELSLSGLCQCLVELSTQPATVCHGSATTREAARGEAARRALQYLKIMAGSK | – | – | – | – | – | – | – | –
binds | phospho-mimic mutant of TRBP (TRBPpm) (natural protein, human, UniProt Q15633 1-366, looked up) MSEEEQGSGTTTGCGLPSIEQMLAANPGKTPISLLQEYGTRIGKTPVYDLLKAEGQAHQPNFTFRVTVGDTSCTGQGPSKKAAKHKAAEVALKHLKGGSMLEPALEDSSSFSPLDSSLPEDIPVFTAAAAATPVPSVVLTRDPPMELQPPVDPQQSECNPVGALQELVVQKGWRLPEYTVTQESGPAHRKEFTMTCRVERFIEIGSGTSKKLAKRNAAAKMLLRVHTVPLDARDGNEVEPDDDHFSIGVGSRLDGLRNRGPGCTWDSLRNSVGEKILSLRSCDLGDLGALGPACCRVLSELSEEQAFHVSYLDIEELSLSGLCQCLVELSTQPATVCHGSATTREAARGEAARRALQYLKIMAGSK | – | – | – | – | – | – | – | –
– | pre-let-7a (structured_RNA) RNA: UGAGGUAGUAGGUUGUAUAGUUUUAGGGUCACACCCACCACUGGGAGAUAACUAUACAAUCUACUGUCUUACC | 1.8 ± 0.4 | 1.3 ± 0.1 | – | – | < 0.05 | 1.3 ± 0.2 | 2.9 ± 0.6 | < 0.04
